Experimental data reported in patent US20240165282A1, “CONFORMATIONAL CONSTRAINED SOMATOSTATIN RECEPTOR 3 PEPTIDE LIGANDS AND THEIR CONJUGATES AND USES THEREOF” (STARGET PHARMA LTD., priority 2021, published 2024).
*1 amine or outer side, *2 acyl side, *3 side chain or, on linkers, in order; H or OH if unused. Bridges are numbered along the chain shown (N, C = ends). [ ]: non-standard residue; d: D form. The star is where a group is joined. DOTA = O=C(O)CN1CCN(CC(=O)O)CCN(CC(=O)*)CCN(CC(=O)O)CC1; N(2-mercaptoethyl)Gly = O=C(CN(CCS[*:3])[*:1])[*:2]

What was measured:
[1] = target: human cloned somatostatin receptor 5 (human) (UniProt P35346); assay: 125I-Tyr11-SRIF-14 displacement
[2] = target: human cloned somatostatin receptor 1 (human) (UniProt P30872); assay: 125I-Tyr11-SRIF-14 displacement
[3] = target: human cloned somatostatin receptor 3 (human) (UniProt P32745); assay: 125I-Tyr11-SRIF-14 displacement
[4] = target: human cloned somatostatin receptor 2 (human) (UniProt P30874); assay: 125I-Tyr11-SRIF-14 displacement
VIPR2 (human) = VIPR2 (human) (UniProt P41587); assay: cell-based or functional assay
RXFP3 (human) = RXFP3 (human) (UniProt Q9NSD7); assay: cell-based or functional assay
CCR9 (human) = CCR9 (human) (UniProt P51686); assay: cell-based or functional assay
GHSR (human) = GHSR (human) (UniProt Q92847); assay: cell-based or functional assay
PTGER4 (human) = PTGER4 (human) (UniProt P35408); assay: cell-based or functional assay
KISS1R (human) = KISS1R (human) (UniProt Q969F8); assay: cell-based or functional assay
C3AR1 (human) = C3AR1 (human) (UniProt Q16581); assay: cell-based or functional assay
CCR7 (human) = CCR7 (human) (UniProt P32248); assay: cell-based or functional assay
(CR)L-RAMP2 (human) = (CR)L-RAMP2 (human) (UniProt Q16602); assay: cell-based or functional assay
GRPR (human) = GRPR (human) (UniProt P30550); assay: cell-based or functional assay
(CR)L-RAMP1 (human) = (CR)L-RAMP1 (human) (UniProt Q16602); assay: cell-based or functional assay
OPRD1 (human) = OPRD1 (human) (UniProt P41143); assay: cell-based or functional assay
[5] = target: human cloned somatostatin receptor 5 (human) (UniProt P35346); assay: cell-based or functional assay
ADRB2 (human) = ADRB2 (human) (UniProt P07550); assay: cell-based or functional assay
NMU1R (human) = NMU1R (human) (UniProt Q9HB89); assay: cell-based or functional assay
TACR2 (human) = TACR2 (human) (UniProt P21452); assay: cell-based or functional assay
[6] = target: human cloned somatostatin receptor 1 (human) (UniProt P30872); assay: cell-based or functional assay
CXCR2 (human) = CXCR2 (human) (UniProt P25025); assay: cell-based or functional assay
GPR109A (human) = GPR109A (human) (UniProt Q8TDS4); assay: cell-based or functional assay
PTHR2 (human) = PTHR2 (human) (UniProt P49190); assay: cell-based or functional assay
OPRL1 (human) = OPRL1 (human) (UniProt P41146); assay: cell-based or functional assay
GPR1 (human) = GPR1 (human) (UniProt P46091); assay: cell-based or functional assay
CCR10 (human) = CCR10 (human) (UniProt P46092); assay: cell-based or functional assay
ADRA2B (human) = ADRA2B (human) (UniProt P18089); assay: cell-based or functional assay
MTNR1A (human) = MTNR1A (human) (UniProt P48039); assay: cell-based or functional assay
CXCR4 (human) = CXCR4 (human) (UniProt P61073); assay: cell-based or functional assay
OPRK1 (human) = OPRK1 (human) (UniProt P41145); assay: cell-based or functional assay
CHRM2 (human) = CHRM2 (human) (UniProt P08172); assay: cell-based or functional assay
MCHR2 (human) = MCHR2 (human) (UniProt Q969V1); assay: cell-based or functional assay
PTGIR (human) = PTGIR (human) (UniProt P43119); assay: cell-based or functional assay
ADORA3 (human) = ADORA3 (human) (UniProt P0DMS8); assay: cell-based or functional assay
GLP2R (human) = GLP2R (human) (UniProt O95838); assay: cell-based or functional assay
P2RY6 (human) = P2RY6 (human) (UniProt Q15077); assay: cell-based or functional assay
MRGPRX2 (human) = MRGPRX2 (human) (UniProt Q96LB1); assay: cell-based or functional assay
NPBWR2 (human) = NPBWR2 (human) (UniProt P48146); assay: cell-based or functional assay
TRHR (human) = TRHR (human) (UniProt P34981); assay: cell-based or functional assay
CCR8 (human) = CCR8 (human) (UniProt P51685); assay: cell-based or functional assay
CXCR7 (human) = CXCR7 (human) (UniProt P25106); assay: cell-based or functional assay
NMBR (human) = NMBR (human) (UniProt P28336); assay: cell-based or functional assay
OPRM1 (human) = OPRM1 (human) (UniProt P35372); assay: cell-based or functional assay
MC1R (human) = MC1R (human) (UniProt Q01726); assay: cell-based or functional assay
EBI2 (human) = EBI2 (human) (UniProt P32249); assay: cell-based or functional assay
DRD1 (human) = DRD1 (human) (UniProt P21728); assay: cell-based or functional assay
OXTR (human) = OXTR (human) (UniProt P30559); assay: cell-based or functional assay
(CR)R-RAMP2 (human) = (CR)R-RAMP2 (human) (UniProt P30988); assay: cell-based or functional assay
F2R (human) = F2R (human) (UniProt P25116); assay: cell-based or functional assay
AVPR2 (human) = AVPR2 (human) (UniProt P30518); assay: cell-based or functional assay
AGTR1 (human) = AGTR1 (human) (UniProt P30556); assay: cell-based or functional assay
C5L2 (human) = C5L2 (human) (UniProt Q9P296); assay: cell-based or functional assay
ADRA2A (human) = ADRA2A (human) (UniProt P08913); assay: cell-based or functional assay
CRHR2 (human) = CRHR2 (human) (UniProt Q13324); assay: cell-based or functional assay

human cloned somatostatin receptor 5 (human), sequence (P35346 whole entry): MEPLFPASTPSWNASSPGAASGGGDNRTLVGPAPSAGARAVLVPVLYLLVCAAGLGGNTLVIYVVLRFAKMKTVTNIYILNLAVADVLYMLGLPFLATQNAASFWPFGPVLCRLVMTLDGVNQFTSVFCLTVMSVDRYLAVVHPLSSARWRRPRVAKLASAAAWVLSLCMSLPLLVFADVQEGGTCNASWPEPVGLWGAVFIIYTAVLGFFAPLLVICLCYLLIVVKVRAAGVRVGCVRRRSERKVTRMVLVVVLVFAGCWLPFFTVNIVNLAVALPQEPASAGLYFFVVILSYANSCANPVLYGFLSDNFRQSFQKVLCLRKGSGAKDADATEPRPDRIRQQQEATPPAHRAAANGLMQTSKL
human cloned somatostatin receptor 1 (human), sequence (P30872 whole entry): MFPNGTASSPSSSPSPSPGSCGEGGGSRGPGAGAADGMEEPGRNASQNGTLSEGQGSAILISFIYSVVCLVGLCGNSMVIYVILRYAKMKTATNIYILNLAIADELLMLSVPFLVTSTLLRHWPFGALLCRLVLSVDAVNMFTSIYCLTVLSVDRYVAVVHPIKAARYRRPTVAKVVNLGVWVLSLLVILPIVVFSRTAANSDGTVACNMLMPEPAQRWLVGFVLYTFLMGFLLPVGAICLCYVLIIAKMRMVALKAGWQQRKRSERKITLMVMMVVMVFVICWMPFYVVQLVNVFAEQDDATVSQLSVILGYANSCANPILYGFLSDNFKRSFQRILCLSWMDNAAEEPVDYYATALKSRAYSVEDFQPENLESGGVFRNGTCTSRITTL
human cloned somatostatin receptor 2 (human), sequence (P30874 whole entry): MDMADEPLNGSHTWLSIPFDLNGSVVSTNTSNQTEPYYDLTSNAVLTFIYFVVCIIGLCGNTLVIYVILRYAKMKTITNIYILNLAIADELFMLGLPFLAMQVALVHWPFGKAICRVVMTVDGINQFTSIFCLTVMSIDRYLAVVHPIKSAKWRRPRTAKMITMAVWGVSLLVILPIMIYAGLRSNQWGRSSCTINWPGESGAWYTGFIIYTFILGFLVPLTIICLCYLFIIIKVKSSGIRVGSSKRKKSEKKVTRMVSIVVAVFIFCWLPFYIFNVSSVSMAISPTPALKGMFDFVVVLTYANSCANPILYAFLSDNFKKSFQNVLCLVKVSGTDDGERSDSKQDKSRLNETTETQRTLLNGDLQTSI
OPRM1 (human), sequence (P35372 whole entry): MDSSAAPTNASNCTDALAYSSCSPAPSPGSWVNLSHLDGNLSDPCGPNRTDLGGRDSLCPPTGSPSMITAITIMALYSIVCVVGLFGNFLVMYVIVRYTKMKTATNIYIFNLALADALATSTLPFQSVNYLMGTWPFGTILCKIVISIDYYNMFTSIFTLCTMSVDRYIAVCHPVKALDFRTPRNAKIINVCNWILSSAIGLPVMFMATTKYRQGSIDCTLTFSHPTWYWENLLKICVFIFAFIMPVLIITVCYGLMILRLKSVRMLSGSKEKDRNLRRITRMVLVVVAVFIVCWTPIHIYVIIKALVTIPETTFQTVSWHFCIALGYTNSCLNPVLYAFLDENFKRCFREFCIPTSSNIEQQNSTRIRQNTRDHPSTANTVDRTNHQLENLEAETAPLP
VIPR2 (human), sequence (P41587 24-438): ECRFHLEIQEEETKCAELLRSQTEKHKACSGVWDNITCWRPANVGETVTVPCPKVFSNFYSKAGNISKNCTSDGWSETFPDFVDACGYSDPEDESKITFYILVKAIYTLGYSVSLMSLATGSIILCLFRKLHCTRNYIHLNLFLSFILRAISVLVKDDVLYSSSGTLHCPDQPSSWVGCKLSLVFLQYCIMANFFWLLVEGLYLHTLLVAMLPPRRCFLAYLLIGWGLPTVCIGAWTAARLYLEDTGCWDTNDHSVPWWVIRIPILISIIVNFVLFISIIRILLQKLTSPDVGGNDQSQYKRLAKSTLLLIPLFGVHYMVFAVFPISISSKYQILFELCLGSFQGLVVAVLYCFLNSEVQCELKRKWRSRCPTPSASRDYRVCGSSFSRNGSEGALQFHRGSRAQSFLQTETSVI
PTGER4 (human), sequence (P35408 whole entry): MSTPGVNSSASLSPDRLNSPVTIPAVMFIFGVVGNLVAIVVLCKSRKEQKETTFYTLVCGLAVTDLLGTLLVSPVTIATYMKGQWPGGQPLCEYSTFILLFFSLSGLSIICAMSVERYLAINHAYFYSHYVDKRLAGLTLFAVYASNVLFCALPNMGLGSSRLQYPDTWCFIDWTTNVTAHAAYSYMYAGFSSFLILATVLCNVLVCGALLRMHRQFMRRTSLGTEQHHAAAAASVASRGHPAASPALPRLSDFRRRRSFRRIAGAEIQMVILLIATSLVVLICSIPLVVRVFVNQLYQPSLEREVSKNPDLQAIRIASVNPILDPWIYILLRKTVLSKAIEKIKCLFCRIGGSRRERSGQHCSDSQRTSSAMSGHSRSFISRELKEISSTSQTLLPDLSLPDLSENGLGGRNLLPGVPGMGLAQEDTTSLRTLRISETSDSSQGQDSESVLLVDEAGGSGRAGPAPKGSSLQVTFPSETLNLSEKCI
CHRM2 (human), sequence (P08172 whole entry): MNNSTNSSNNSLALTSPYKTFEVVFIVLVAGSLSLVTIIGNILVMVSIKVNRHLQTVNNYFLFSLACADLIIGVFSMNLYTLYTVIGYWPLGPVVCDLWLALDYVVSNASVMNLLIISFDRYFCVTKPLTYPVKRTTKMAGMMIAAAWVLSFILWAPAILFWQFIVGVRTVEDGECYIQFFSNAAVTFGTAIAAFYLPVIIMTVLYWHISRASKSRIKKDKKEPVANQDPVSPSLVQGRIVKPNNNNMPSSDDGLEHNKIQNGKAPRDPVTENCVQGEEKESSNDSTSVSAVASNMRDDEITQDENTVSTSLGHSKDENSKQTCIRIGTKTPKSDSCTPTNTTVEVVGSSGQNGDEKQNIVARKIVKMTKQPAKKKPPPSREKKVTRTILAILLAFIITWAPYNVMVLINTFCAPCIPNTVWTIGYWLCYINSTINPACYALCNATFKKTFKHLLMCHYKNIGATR
GHSR (human), sequence (Q92847 whole entry): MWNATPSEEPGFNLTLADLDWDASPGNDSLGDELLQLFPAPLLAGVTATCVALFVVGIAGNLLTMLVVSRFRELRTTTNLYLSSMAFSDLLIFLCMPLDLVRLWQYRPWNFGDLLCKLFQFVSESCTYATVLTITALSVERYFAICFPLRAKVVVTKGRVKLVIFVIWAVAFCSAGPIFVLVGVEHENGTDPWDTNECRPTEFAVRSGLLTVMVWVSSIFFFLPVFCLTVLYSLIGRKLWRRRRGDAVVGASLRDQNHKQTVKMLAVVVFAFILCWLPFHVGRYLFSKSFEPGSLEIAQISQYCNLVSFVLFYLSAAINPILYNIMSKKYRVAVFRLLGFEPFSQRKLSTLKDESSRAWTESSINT
OPRD1 (human), sequence (P41143 whole entry): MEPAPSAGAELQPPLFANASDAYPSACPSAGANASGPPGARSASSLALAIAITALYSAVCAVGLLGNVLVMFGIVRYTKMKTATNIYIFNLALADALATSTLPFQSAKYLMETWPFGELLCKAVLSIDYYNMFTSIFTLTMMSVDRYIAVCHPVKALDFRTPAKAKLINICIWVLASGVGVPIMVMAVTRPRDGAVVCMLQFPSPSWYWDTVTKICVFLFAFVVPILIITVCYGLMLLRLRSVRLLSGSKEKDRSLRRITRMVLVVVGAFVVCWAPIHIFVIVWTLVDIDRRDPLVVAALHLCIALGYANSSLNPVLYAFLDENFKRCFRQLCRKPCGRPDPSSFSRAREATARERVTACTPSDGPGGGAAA
CCR9 (human), sequence (P51686 whole entry): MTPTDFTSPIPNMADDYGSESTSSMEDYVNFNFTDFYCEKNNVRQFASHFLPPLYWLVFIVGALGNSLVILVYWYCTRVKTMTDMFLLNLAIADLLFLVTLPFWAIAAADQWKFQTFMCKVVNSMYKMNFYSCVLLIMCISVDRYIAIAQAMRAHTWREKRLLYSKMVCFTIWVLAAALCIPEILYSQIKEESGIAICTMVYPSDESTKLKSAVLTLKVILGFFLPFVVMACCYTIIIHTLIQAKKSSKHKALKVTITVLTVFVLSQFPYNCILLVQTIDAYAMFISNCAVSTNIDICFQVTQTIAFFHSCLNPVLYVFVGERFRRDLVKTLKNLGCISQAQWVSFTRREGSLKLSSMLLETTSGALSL
MRGPRX2 (human), sequence (Q96LB1 whole entry): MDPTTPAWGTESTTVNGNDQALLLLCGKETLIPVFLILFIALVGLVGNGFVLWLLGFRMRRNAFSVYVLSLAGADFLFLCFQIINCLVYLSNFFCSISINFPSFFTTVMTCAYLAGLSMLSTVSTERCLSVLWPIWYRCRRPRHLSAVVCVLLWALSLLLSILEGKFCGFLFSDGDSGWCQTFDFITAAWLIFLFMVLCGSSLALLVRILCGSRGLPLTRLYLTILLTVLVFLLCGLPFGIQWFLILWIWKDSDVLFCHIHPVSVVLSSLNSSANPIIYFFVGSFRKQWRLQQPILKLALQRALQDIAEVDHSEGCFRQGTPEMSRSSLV
(CR)L-RAMP2 (human), sequence (Q16602 23-461, chain 1 of 2): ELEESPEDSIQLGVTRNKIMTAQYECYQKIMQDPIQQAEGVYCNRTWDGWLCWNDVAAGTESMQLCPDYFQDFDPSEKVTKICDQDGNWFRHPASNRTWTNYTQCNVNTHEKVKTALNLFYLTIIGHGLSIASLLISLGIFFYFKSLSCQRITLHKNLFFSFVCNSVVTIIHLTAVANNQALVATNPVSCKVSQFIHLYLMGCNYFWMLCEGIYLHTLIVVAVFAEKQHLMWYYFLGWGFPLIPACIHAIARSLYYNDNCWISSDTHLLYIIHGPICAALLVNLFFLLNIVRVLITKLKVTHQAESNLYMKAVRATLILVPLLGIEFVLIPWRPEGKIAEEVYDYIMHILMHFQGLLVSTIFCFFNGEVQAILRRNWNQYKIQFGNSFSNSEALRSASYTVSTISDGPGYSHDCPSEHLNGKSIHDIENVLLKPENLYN
(CR)L-RAMP2 (human), sequence (O60895 43-175, chain 2 of 2, further chain): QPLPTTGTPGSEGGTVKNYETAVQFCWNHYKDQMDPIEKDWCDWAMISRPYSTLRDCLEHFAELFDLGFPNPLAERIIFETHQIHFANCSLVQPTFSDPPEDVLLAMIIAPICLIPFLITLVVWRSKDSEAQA

## {DOTA}-[dF]RCF[dW]KTF[N(2-mercaptoethyl)Gly]-NH2 (disulfide 3-9; also: Ga complex of DOTA) [SEQ ID NO: 4]
[1]
  IC50: 140 nM
  Ki: 78 nM
[2]
  IC50: > 1000 nM
  Ki: 880 nM
[3]
  IC50: 1 nM
[4]
  IC50: 56 nM
  Ki: 30 nM
VIPR2 (human)
  % Activity (agonist mode, 1 µM): -1%
RXFP3 (human)
  % Activity (agonist mode, 1 µM): -3%
CCR9 (human)
  % Activity (agonist mode, 1 µM): 0%
GHSR (human)
  % Activity (agonist mode, 1 µM): -1%
PTGER4 (human)
  % Activity (agonist mode, 1 µM): -2%
KISS1R (human)
  % Activity (agonist mode, 1 µM): 0%
C3AR1 (human)
  % Activity (agonist mode, 1 µM): 0%
CCR7 (human)
  % Activity (agonist mode, 1 µM): 1%
(CR)L-RAMP2 (human)
  % Activity (agonist mode, 1 µM): 3%
GRPR (human)
  % Activity (agonist mode, 1 µM): 0%
(CR)L-RAMP1 (human)
  % Activity (agonist mode, 1 µM): -1%
OPRD1 (human)
  % Activity (agonist mode, 1 µM): -1%
[5]
  % Activity (agonist mode, 1 µM): 16%
ADRB2 (human)
  % Activity (agonist mode, 1 µM): 0%
NMU1R (human)
  % Activity (agonist mode, 1 µM): 1%
TACR2 (human)
  % Activity (agonist mode, 1 µM): -1%
[6]
  % Activity (agonist mode, 1 µM): 32%
CXCR2 (human)
  % Activity (agonist mode, 1 µM): -1%
GPR109A (human)
  % Activity (agonist mode, 1 µM): 0%
PTHR2 (human)
  % Activity (agonist mode, 1 µM): 0%
OPRL1 (human)
  % Activity (agonist mode, 1 µM): -3%
GPR1 (human)
  % Activity (agonist mode, 1 µM): 0%
CCR10 (human)
  % Activity (agonist mode, 1 µM): -2%
ADRA2B (human)
  % Activity (agonist mode, 1 µM): -1%
MTNR1A (human)
  % Activity (agonist mode, 1 µM): -7%
CXCR4 (human)
  % Activity (agonist mode, 1 µM): 3%
OPRK1 (human)
  % Activity (agonist mode, 1 µM): -2%
CHRM2 (human)
  % Activity (agonist mode, 1 µM): 0%
MCHR2 (human)
  % Activity (agonist mode, 1 µM): 1%
PTGIR (human)
  % Activity (agonist mode, 1 µM): 0%
ADORA3 (human)
  % Activity (agonist mode, 1 µM): -6%
GLP2R (human)
  % Activity (agonist mode, 1 µM): -1%
P2RY6 (human)
  % Activity (agonist mode, 1 µM): 0%
MRGPRX2 (human)
  % Activity (agonist mode, 1 µM): 1%
NPBWR2 (human)
  % Activity (agonist mode, 1 µM): 1%
TRHR (human)
  % Activity (agonist mode, 1 µM): 3%
CCR8 (human)
  % Activity (agonist mode, 1 µM): 0%
CXCR7 (human)
  % Activity (agonist mode, 1 µM): -1%
NMBR (human)
  % Activity (agonist mode, 1 µM): 1%
OPRM1 (human)
  % Activity (agonist mode, 1 µM): 1%
MC1R (human)
  % Activity (agonist mode, 1 µM): 1%
EBI2 (human)
  % Activity (agonist mode, 1 µM): -1%
DRD1 (human)
  % Activity (agonist mode, 1 µM): 0%
OXTR (human)
  % Activity (agonist mode, 1 µM): 0%
(CR)R-RAMP2 (human)
  % Activity (agonist mode, 1 µM): 0%
F2R (human)
  % Activity (agonist mode, 1 µM): 1%
AVPR2 (human)
  % Activity (agonist mode, 1 µM): 0%
AGTR1 (human)
  % Activity (agonist mode, 1 µM): -2%
C5L2 (human)
  % Activity (agonist mode, 1 µM): -1%
ADRA2A (human)
  % Activity (agonist mode, 1 µM): 3%
CRHR2 (human)
  % Activity (agonist mode, 1 µM): 0%
